The labels stand for the following.
B1: HDV Ribozyme (parent)
chain: GGCCGGCAUGGUCCCAGCCUCCUCGCUGGCGCCGGCUGGGCAACAUUCCGAGGGGACCGUCCCCUCGGUAAUGGCGAAUGGGACCCA

In this data set the parent is B1. The experiment in a line: self-cleavage, relative activity (ratio to wild type); higher = more cleavage; co-transcriptional.
For the variant GGCCGGCAUGGUCCCAGCCUCUUCGCGGGCGCCGGCUGGGCAACAUUCCGAGGGGACCGUCCCCUCGGUAAUGGCGAAUGGGACCCA [C22U U27G], the self-cleavage was determined as 0.554.

Take GGCCGGCAUGGUCCCAGCCUCUUCGCUGGCGCCGGCUGGGCAACAUUCCGACGGGACCGUCCCCUCGGUAAUGGCGAAUGGGACCCA [C22U G52C]: the self-cleavage is 0.635.

As for GGCCGGCAUGGUCCCAGCCUCUUCGCUGGCGCCGGCUGGGCAACAUUCCGAGGGGACCGUCCCCGCGGUAAUGGCGAAUGGGACCCA [C22U U65G], the self-cleavage worked out at 0.845.

For the variant GGCCGGCAUGGUCCCAGCCUCUUCGCUGGCGCCGGCUGGGCAACAUUCCGAGGGGACCGUCCCCACGGUAAUGGCGAAUGGGACCCA [C22U U65A], the self-cleavage amounted to 0.831.

Take GGCCGGCAUGGUCCCAGCCUCUUCCCUGGCGCCGGCUGGGCAACAUUCCGAGGGGACCGUCCCCUCGGUAAUGGCGAAUGGGACCCA [C22U G25C]: the self-cleavage amounted to 0.0852.

In the case of GGCCGGCAUGGUCCCAGCCUCUUCGCUGGCGCCGGCUGGGCAACAUUCCGAGGGGACCGUCCCCUCGGUAAUGGCGAAUGGGACCAA [C22U C86A], the self-cleavage is 0.779.

As to GGCCGGCAUGGUCCCAGCCUCUUCGCUGGCGCCGGCUGGGCAACAUUCCGAGGAGACCGUCCCCUCGGUAAUGGCGAAUGGGACCCA [C22U G54A], the self-cleavage is 0.709.

For GGCCGGCAUGGUCCCAGCCUCUUCGCUGGCGCCGGCUGGGCAACAUUCCGAGGCGACCGUCCCCUCGGUAAUGGCGAAUGGGACCCA [C22U G54C], the self-cleavage is 0.641.

For GGCCGGCAUGGUCCCAGCCUCCACGCUGGCGCCGGCUGGGCAACUUUCCGAGGGGACCGUCCCCUCGGUAAUGGCGAAUGGGACCCA [U23A A45U], the self-cleavage was found to be 0.727.

Consider GGCCGGCAUGGUCCCAGCCUCCACGCUGGCGCCGGCUGGGCAACGUUCCGAGGGGACCGUCCCCUCGGUAAUGGCGAAUGGGACCCA [U23A A45G], for which the self-cleavage was 1.15.

As to GGCCGGCAUGGUCCCAGCCUCUUCGCUGGCGCCGGCUGGGCAACAUUCCGAGGGGACCGUACCCUCGGUAAUGGCGAAUGGGACCCA [C22U C61A], the self-cleavage turned out to be 0.641.

Turning to GGCCGGCAUGGUCCCAGCCUCUUCGCUGGCGCCGGCUGGGCAACAUUCCGAGGGGACCGUUCCCUCGGUAAUGGCGAAUGGGACCCA [C22U C61U], the self-cleavage turned out to be 0.62.

As for GGCCGGCAUGGUCCCAGCCUCUUCGCUGGCGCCGGCUGGGCAACAUUCCGAGGGGACCUUCCCCUCGGUAAUGGCGAAUGGGACCCA [C22U G59U], the self-cleavage is 0.858.

Turning to GGCCGGCAUGGUCCCAGCCUCUUCGCUGGCGCCGGCUGGGCAACAUUCCGAGGGGACCAUCCCCUCGGUAAUGGCGAAUGGGACCCA [C22U G59A], the self-cleavage stood at 0.675.

Regarding GGCCGGCAUGGUCCCAGCCUCUUCGCUGGCGCCGGCUGGGCAACAUUCCGAGGGGACCGUCCCCUCGGUAAUGGCGAAUGGGAUCCA [C22U C84U], the self-cleavage was determined as 0.29.

In the case of GGCCGGCAUGGUCCCAGCCUCUUCGCUGGCGCCGGCUAGGCAACAUUCCGAGGGGACCGUCCCCUCGGUAAUGGCGAAUGGGACCCA [C22U G38A], the self-cleavage was found to be 0.931.

Regarding GGCCGGCAUGGUCCCAGCCUCUUCGCUGGCGCCGGCUCGGCAACAUUCCGAGGGGACCGUCCCCUCGGUAAUGGCGAAUGGGACCCA [C22U G38C], the self-cleavage worked out at 0.122.

Regarding GGCCGGCAUGGUCCCAGCCUCUUCGCUGGCGCCGGCUGGGCAACAUUCCGAGGGAACCGUCCCCUCGGUAAUGGCGAAUGGGACCCA [C22U G55A], the self-cleavage turned out to be 0.717.

Consider GGCCGGCAUGGUCCCAGCCUCUUCGCUGGCGCCGGCUGGGCAACAUUCCGAGGGGACCGUCCCCUCGGUAAUGGAGAAUGGGACCCA [C22U C75A], for which the self-cleavage was 0.0282.

As to GGCCGGCAUGGUCCCAGCCUCUUCGCUGGCGCCGGCUGGGCAACAUUCCGAGGGGACCGUCCCCUCGGUAAUGGUGAAUGGGACCCA [C22U C75U], the self-cleavage is 0.214.

Take GGCCGGCAUGGUCCCAGCCUCCACGCUGGCGCCGGCUGGGCAUCAUUCCGAGGGGACCGUCCCCUCGGUAAUGGCGAAUGGGACCCA [U23A A43U]: the self-cleavage was found to be 0.481.

Take GGCCGGCAUGGUCCCAGCCUCCACGCUGGCGCCGGCUGGGCACCAUUCCGAGGGGACCGUCCCCUCGGUAAUGGCGAAUGGGACCCA [U23A A43C]: the self-cleavage was 0.312.

Consider GGCCGGCAUGGUCCCAGCCUCUUCGCUGGCGCCGGCAGGGCAACAUUCCGAGGGGACCGUCCCCUCGGUAAUGGCGAAUGGGACCCA [C22U U37A], for which the self-cleavage was determined as 0.166.

As to GGCCGGCAUGGUCCCAGCCUCUUCGCUGGCGCCGGCGGGGCAACAUUCCGAGGGGACCGUCCCCUCGGUAAUGGCGAAUGGGACCCA [C22U U37G], the self-cleavage was 0.101.

Take GGCCGGCAUGGUCCCAGCCUCUUCGCUGGCGCCGCCUGGGCAACAUUCCGAGGGGACCGUCCCCUCGGUAAUGGCGAAUGGGACCCA [C22U G35C]: the self-cleavage amounted to 0.

Consider GGCCGGCAUGGUCCCAGCCUCUUCGCUGGCGCCGUCUGGGCAACAUUCCGAGGGGACCGUCCCCUCGGUAAUGGCGAAUGGGACCCA [C22U G35U], for which the self-cleavage is 0.0511.

Turning to GGCCGGCAUGGUCCCAGCCUCUUCGCUGGCGCCGACUGGGCAACAUUCCGAGGGGACCGUCCCCUCGGUAAUGGCGAAUGGGACCCA [C22U G35A], the self-cleavage is 0.109.

For the variant GGCCGGCAUGGUCCCAGCCUCCACGCUGGCGCCGGCUGGGCAACAUUCCGCGGGGACCGUCCCCUCGGUAAUGGCGAAUGGGACCCA [U23A A51C], the self-cleavage worked out at 0.731.

Regarding GGCCGGCAUGGUCCCAGCCUCUUCGCUGGCGCCGGCUGGGCAACAAUCCGAGGGGACCGUCCCCUCGGUAAUGGCGAAUGGGACCCA [C22U U46A], the self-cleavage was determined as 0.295.

As to GGCCGGCAUGGUCCCAGCCUCUUCGCUGGCGCCGGCUGGGCAACACUCCGAGGGGACCGUCCCCUCGGUAAUGGCGAAUGGGACCCA [C22U U46C], the self-cleavage was determined as 0.268.

In the case of GGCCGGCAUGGUCCCAGCCUCUUCGCUGGCGCCGGCUGGGCAACAUUCCGAGGGGACCGUCCCUUCGGUAAUGGCGAAUGGGACCCA [C22U C64U], the self-cleavage worked out at 0.892.

Regarding GGCCGGCAUGGUCCCAGCCUCUUCGCUGGCGCCGGCUGGGCAACAUUCCGAGGGGACCGUCCCCUCGGUAAUGGCGAAUGCGACCCA [C22U G81C], the self-cleavage was found to be 0.237.

For the origin of these results see the RNAGym collection of RNA variant scans (doi:10.7554/elife.80360).
